Measurements taken from patent publication US20250197490A1, “ANTI-CORTICOTROPIN-RELEASING HORMONE ANTIBODIES AND USE IN CONGENITAL ADRENAL HYPERPLASIA” (HBM ALPHA THERAPEUTICS, INC., priority 2021, published 2025).

How the values were obtained:
[1] = biological target: biotinylated CRH (human and mouse); assay: Octet in-tandem competition on captured CRH; row = 1st mAb (control hIgG1); competitor (2nd mAb) PR005660
[2] = biological target: biotinylated CRH (human and mouse); assay: Octet in-tandem competition on captured CRH; row = 1st mAb (control hIgG1); competitor (2nd mAb) PR006669
[3] = biological target: biotinylated CRH (human and mouse); assay: Octet in-tandem competition on captured CRH; row = 1st mAb (control hIgG1); competitor (2nd mAb) PR301777
[4] = biological target: biotinylated CRH (human and mouse); assay: Octet in-tandem competition on captured CRH; row = 1st mAb (control hIgG1); competitor (2nd mAb) PR302334
[5] = biological target: biotinylated CRH (human and mouse); assay: Octet in-tandem competition on captured CRH; row = 1st mAb (control hIgG1); competitor (2nd mAb) PR303394
[6] = biological target: biotinylated CRH (human and mouse); assay: Octet in-tandem competition on captured CRH; row = 1st mAb (control hIgG1); competitor (2nd mAb) PR302309-8
[7] = biological target: biotinylated CRH (human and mouse); assay: Octet in-tandem competition on captured CRH; row = 1st mAb (control hIgG1); competitor (2nd mAb) PR302341-34

Sequence of biotinylated CRH (human and mouse) (P01143 145-185): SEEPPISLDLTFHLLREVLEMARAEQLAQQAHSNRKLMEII

% Inhibition [1]: 12% | % Inhibition [2]: 9% | % Inhibition [3]: 9% | % Inhibition [4]: 8% | % Inhibition [5]: 10% | % Inhibition [6]: 15% | % Inhibition [7]: 12%
Substance: unrelated human IgG1 (negative control) (antibody)
